Data from PMC11549327 (Nature Communications, 2024).

Target: the molecule itself
Assay: cryo-EM structure

B1: E. coli ClpP-His6 (tetradecamer) (enzyme)
chain: not shown
For B1, the “stoichiometry N” value was 14.
